Two molecules from patent US20050074865A1 (COMPOUND THERAPEUTICS, published 2005) can be followed below.

The target of test [1] is T1, biotinylated target peptide NH2-YPYDVPDYAGSGDYKAFD containing the high affinity HA epitope (also: biotinylated, position not given here).
T1 construct: also called the peptide
T1 peptide: YPYDVPDYAGSGDYKAFD
As to the kind of experiment: sandwich ELISA: component captured on anti-myc (mAb 9E10) plates, biotinylated peptide detected with streptavidin-HRP. Background: In an ELISA, binding on a coated surface is turned into a signal by an enzyme label.

Test [2] concerns the target T2, S-TNF, human TNFα fusion protein with an N-terminal S-Tag (human, UniProt P01375 77-233).
T2 construct: Made by the applicants; not shown: 15 amino acid S-Tag peptide (Novagen)
The test can be described thus: indirect ELISA: sp55 from conditioned medium captured on Ni-NTA wells, S-TNF at 1 µg/mL, detection with S-protein-HRP, absorbance at 370 nm.

Where no end group is shown, it is not given here.

T2 sequence (P01375 77-233): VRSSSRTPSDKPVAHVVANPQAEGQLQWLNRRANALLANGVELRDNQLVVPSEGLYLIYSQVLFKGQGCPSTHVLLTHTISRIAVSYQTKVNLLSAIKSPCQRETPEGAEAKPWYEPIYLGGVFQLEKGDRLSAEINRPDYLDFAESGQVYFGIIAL

B1: scFvαHA, single chain antibody derived from monoclonal antibody mAb26/9 (address domain alone, expressed from pSecTag2A with C-terminal myc and His6 tags) (scFv, not shown: small tags and cut ends)
scFv: MEVQLLESGGDLVKPGGSLKLSCAASGFTFSTYGMSWVRQTPDKRLEWVATISNGGGYTYYPDSVKGRFTISRDNAKNTLYLQMSSLKSEDTAMYYCARRERYDENGFAYWGRGTLVTVSAGGGGSGGGGSGGGGSDIVMSQSPSSLAVSVGEKITMSCKSSQSLFNSGKQKNYLTWYQQKPGQSPKLLIYWASTRESGVPDRFTGSGSGTDFTLTISSVKAEDLAVYYCQNDYSHPLTFGGGTKLEIKRADAAPT
notes: also called scHA; scFv anti-HA
In the case of B1, the binding result in test [1] was “binds”.

B2: sp55, full-length ecto-domain of human TNFR-1 (residues 30-211) with C-terminal myc and His6 tags, expressed from pSecTag2A (receptor)
chain: DAAQPARRAVRSLVPHLGDREKRDSVCPQGKYIHPQNNSICCTKCHKGTYLYNDCPGPGQDTDCRECESGSFTASENHLRHCLSCSKCRKEMGQVEISSCTVDRDTVCGCRKNQYRHYWSENLFQCFNCSLCLNGTVHLSCQEKQNTVCTCHAGFFLRENECVSCSNCKKSLECTKLCLPQIENVKGTEDSGTTRGGPEQKLISEEDLNSAVDHHHHHH
notes: also called sp55 address domain; p55FL
For B2, in test [2], the “fold elevation of S-TNF binding over non-specific binding in control samples” value was 3 fold.
